Laboratory results reported in the supplement of paper PMC10724198.
± gives the standard deviation of the averaged measurements.

Legend:
Saccharomyces cerevisiae [1] = experiment: protein stability index of tFT-peptide fusion (C-terminal peptide) (PSI (0-1 scale)); higher = more stable (slower turnover); details: genetic background: wild type; temperature: 30 C
Saccharomyces cerevisiae [2] = experiment: as above
Experimental: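 MPS profiling in S. cerevisiae of the tFT-X12 degron library: putative degron peptides plus stable controls, 12 aa, fused to the C-terminus of a sfGFP-mCherry timer. Cells are FACS-sorted into 8 mCherry/sfGFP bins and deep-sequenced. PSI runs from 0 (unstable) to 1 (stable). Backgrounds are wild type, das1Δ and doa10Δ at 30 °C, and wild type, das1Δ, cdc34-1 and cdc53-1 at 37 °C; 2-3 technical replicates each.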

[3] = genetic background: cdc34-1, temperature: 37 C
[4] = genetic background: cdc53-1, temperature: 37 C
[5] = genetic background: das1 deletion, temperature: 30 C
[6] = genetic background: das1 deletion, temperature: 37 C
[7] = genetic background: doa10 deletion, temperature: 30 C
[8] = genetic background: wild type, temperature: 30 C
[9] = genetic background: wild type, temperature: 37 C
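Further: PSI is a weighted mean of sequencing reads over stability bins, variants kept only with over 10 reads, mCherry proximal and sfGFP distal, peptide attached via GGGS linker.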

Row | Sequence | protein stability index (Saccharomyces cerevisiae [1]) | protein stability index (Saccharomyces cerevisiae [2]; [3]) | protein stability index (Saccharomyces cerevisiae [2]; [4]) | protein stability index (Saccharomyces cerevisiae [2]; [5]) | protein stability index (Saccharomyces cerevisiae [2]; [6]) | protein stability index (Saccharomyces cerevisiae [2]; [7]) | protein stability index (Saccharomyces cerevisiae [2]; [8]) | protein stability index (Saccharomyces cerevisiae [2]; [9])
1 | FLLVGLLIVGCG | 0.225 ± 0.12 | 0.175 ± 0.0045 | 0.272 ± 0.0014 | 0.206 ± 0.027 | 0.349 ± 0.018 | 0.166 ± 0.025 | 0.206 ± 0.026 | 0.334 ± 0.0082
2 | CEERVKSRLKQN | 0.226 ± 0.082 | 0.619 ± 0.011 | 0.68 ± 0.013 | 0.653 ± 0.043 | 0.728 ± 0.014 | 0.174 ± 0.012 | 0.18 ± 0.031 | 0.307 ± 0.022
3 | NYCVFLSYLLFC | 0.301 ± 0.0096 | 0.362 ± 0.044 | 0.424 ± 0.025 | 0.318 ± 0.027 | 0.502 ± 0.0072 | 0.205 ± 0.012 | 0.215 ± 0.033 | 0.3961 ± 0.0034
4 | GIVYFDQWISVS | 0.461 ± 0.052 | 0.546 ± 0.031 | 0.538 ± 0.082 | 0.393 ± 0.022 | 0.571 ± 0.016 | 0.321 ± 0.0069 | 0.347 ± 0.02 | 0.544 ± 0.0084
5 | YLFLPGGEVSVH | 0.487 ± 0.083 | 0.641 ± 0.033 | 0.653 ± 0.019 | 0.538 ± 0.032 | 0.666 ± 0.0033 | 0.5204 ± 0.0031 | 0.553 ± 0.019 | 0.6369 ± 0.00098
6 | DVVRWQRVRNYV | 0.454 ± 0.041 | 0.687 ± 0.024 | 0.7218 ± 0.0072 | 0.632 ± 0.022 | 0.737 ± 0.0088 | 0.2746 ± 0.0021 | 0.3 ± 0.028 | 0.573 ± 0.0059
7 | KTDVYPVSFFTC | 0.184 ± 0.028 | 0.532 ± 0.013 | 0.738 ± 0.0099 | 0.645 ± 0.043 | 0.711 ± 0.055 | 0.0924 ± 0.019 | 0.0951 ± 0.026 | 0.133 ± 0.013
8 | PRPLLSIYLRHA | 0.405 ± 0.018 | 0.597 ± 0.036 | 0.666 ± 0.014 | 0.599 ± 0.023 | 0.69 ± 0.019 | 0.29 ± 0.013 | 0.315 ± 0.017 | 0.553 ± 0.022
9 | YVRHDKLILSFC | 0.489 ± 0.013 | 0.492 ± 0.026 | 0.529 ± 0.041 | 0.427 ± 0.021 | 0.5562 ± 0.0027 | 0.3915 ± 0.002 | 0.414 ± 0.019 | 0.54 ± 0.011
10 | RGFVVFCIPCFV | 0.3392 ± 0.002 | 0.301 ± 0.042 | 0.326 ± 0.021 | 0.259 ± 0.042 | 0.428 ± 0.033 | 0.204 ± 0.0051 | 0.243 ± 0.03 | 0.401 ± 0.038
11 | LRVVLVEWMCVV | 0.33 ± 0.03 | 0.248 ± 0.017 | 0.295 ± 0.036 | 0.274 ± 0.037 | 0.418 ± 0.0054 | 0.172 ± 0.011 | 0.21 ± 0.023 | 0.358 ± 0.011
12 | SVFSFCLCVGVV | 0.294 ± 0.066 | 0.285 ± 0.0083 | 0.363 ± 0.076 | 0.266 ± 0.028 | 0.402 ± 0.011 | 0.213 ± 0.014 | 0.253 ± 0.033 | 0.358 ± 0.0064
13 | ESCFGMAIFCVT | 0.466 ± 0.024 | 0.526 ± 0.012 | 0.571 ± 0.011 | 0.37 ± 0.03 | 0.5841 ± 0.0045 | 0.301 ± 0.012 | 0.334 ± 0.03 | 0.525 ± 0.01
14 | LCSLPIVCCFFL | 0.489 ± 0.029 | 0.513 ± 0.015 | 0.552 ± 0.016 | 0.434 ± 0.031 | 0.5703 ± 0.0027 | 0.424 ± 0.016 | 0.427 ± 0.022 | 0.534 ± 0.016
15 | CVFAYSPVALRC | 0.488 ± 0.01 | 0.543 ± 0.025 | 0.534 ± 0.014 | 0.409 ± 0.024 | 0.556 ± 0.0084 | 0.412 ± 0.016 | 0.403 ± 0.018 | 0.532 ± 0.018
16 | SLCELRCLLRVG | 0.473 ± 0.021 | 0.573 ± 0.027 | 0.636 ± 0.022 | 0.522 ± 0.017 | 0.631 ± 0.0023 | 0.471 ± 0.018 | 0.481 ± 0.018 | 0.606 ± 0.013
17 | LLRFFPLLLFSF | 0.122 ± 0.083 | 0.135 ± 0.048 | 0.114 ± 0.01 | 0.213 ± 0.03 | 0.278 ± 0.02 | 0.181 ± 0.0067 | 0.116 ± 0.016 | 0.159 ± 0.013
18 | RSFSKRSFMFLC | 0.263 ± 0.012 | 0.621 ± 0.025 | 0.728 ± 0.11 | 0.646 ± 0.018 | 0.734 ± 0.0094 | 0.154 ± 0.0079 | 0.172 ± 0.0087 | 0.227 ± 0.0064
19 | AFRSPLLMLLVL | 0.3468 ± 0.00084 | 0.336 ± 0.0057 | 0.381 ± 0.0068 | 0.32 ± 0.028 | 0.426 ± 0.01 | 0.32 ± 0.0039 | 0.262 ± 0.031 | 0.354 ± 0.0056
20 | LVGWSWRGWFVV | 0.139 ± 0.025 | 0.512 ± 0.029 | 0.6899 ± 0.0065 | 0.6201 ± 0.0015 | 0.769 ± 0.015 | 0.0763 ± 0.011 | 0.094 ± 0.029 | 0.112 ± 0.012

Row | Sequence | protein stability index (Saccharomyces cerevisiae [1]) | protein stability index (Saccharomyces cerevisiae [2]; [3]) | protein stability index (Saccharomyces cerevisiae [2]; [4]) | protein stability index (Saccharomyces cerevisiae [2]; [5]) | protein stability index (Saccharomyces cerevisiae [2]; [6]) | protein stability index (Saccharomyces cerevisiae [2]; [7]) | protein stability index (Saccharomyces cerevisiae [2]; [8]) | protein stability index (Saccharomyces cerevisiae [2]; [9])
21 | FIGVLVYICREG | 0.329 ± 0.032 | 0.1903 ± 0.0018 | 0.359 ± 0.084 | 0.254 ± 0.017 | 0.44 ± 0.024 | 0.187 ± 0.0062 | 0.228 ± 0.037 | 0.373 ± 0.018
22 | TEHIIAFKASVN | 0.214 ± 0.02 | 0.546 ± 0.0031 | 0.7284 ± 0.0037 | 0.626 ± 0.033 | 0.71 ± 0.01 | 0.0901 ± 0.025 | 0.104 ± 0.024 | 0.153 ± 0.028
23 | DPTLLLYPLSPL | 0.57 ± 0.2 | 0.688 ± 0.018 | 0.765 ± 0.0076 | 0.654 ± 0.019 | 0.748 ± 0.014 | 0.667 ± 0.029 | 0.685 ± 0.035 | 0.72 ± 0.023
24 | YPFSLVLGVFAF | 0.405 ± 0.033 | 0.367 ± 0.02 | 0.389 ± 0.022 | 0.298 ± 0.028 | 0.456 ± 0.0094 | 0.285 ± 0.01 | 0.325 ± 0.0062 | 0.4104 ± 0.0034
25 | VRRFNVLLYVRG | 0.425 ± 0.0063 | 0.459 ± 0.029 | 0.4921 ± 0.0032 | 0.311 ± 0.027 | 0.528 ± 0.0053 | 0.324 ± 0.0045 | 0.321 ± 0.019 | 0.523 ± 0.012
26 | ACGAGFIILLGL | 0.535 ± 0.077 | 0.641 ± 0.086 | 0.613 ± 0.014 | 0.524 ± 0.022 | 0.65 ± 0.015 | 0.571 ± 0.033 | 0.522 ± 0.019 | 0.633 ± 0.008
27 | KVLLYWRHAQRQ | 0.548 ± 0.11 | 0.652 ± 0.052 | 0.6916 ± 0.006 | 0.654 ± 0.019 | 0.733 ± 0.01 | 0.387 ± 0.0069 | 0.44 ± 0.0086 | 0.611 ± 0.013
28 | MMYTLSMLLRLR | 0.513 ± 0.047 | 0.43 ± 0.014 | 0.5 ± 0.0093 | 0.506 ± 0.016 | 0.528 ± 0.015 | 0.64799 ± 0.00045 | 0.52 ± 0.02 | 0.546 ± 0.0085
29 | GWVVVVCGVCCG | 0.285 ± 0.011 | 0.178 ± 0.0072 | 0.22 ± 0.033 | 0.208 ± 0.026 | 0.307 ± 0.016 | 0.167 ± 0.0077 | 0.196 ± 0.024 | 0.28 ± 0.012
30 | ESFIKFALYIVN | 0.419 ± 0.0082 | 0.557 ± 0.052 | 0.604 ± 0.0067 | 0.435 ± 0.023 | 0.621 ± 0.014 | 0.348 ± 0.013 | 0.358 ± 0.036 | 0.5099 ± 0.00084
31 | FFLSFRLFSILL | 0.3114 ± 0.0026 | 0.304 ± 0.033 | 0.359 ± 0.021 | 0.342 ± 0.021 | 0.413 ± 0.014 | 0.412 ± 0.027 | 0.292 ± 0.017 | 0.368 ± 0.011
32 | FPCRNFMVFFCF | 0.29 ± 0.03 | 0.425 ± 0.029 | 0.442 ± 0.008 | 0.43 ± 0.035 | 0.505 ± 0.0097 | 0.211 ± 0.0036 | 0.204 ± 0.0085 | 0.285 ± 0.03
33 | VFSGVTTILVRT | 0.539 ± 0.11 | 0.578 ± 0.05 | 0.517 ± 0.026 | 0.37 ± 0.035 | 0.576 ± 0.022 | 0.346 ± 0.0089 | 0.392 ± 0.018 | 0.538 ± 0.0096
34 | PRQPSKSNASNR | 0.582 ± 0.13 | 0.692 ± 0.044 | 0.7277 ± 0.00076 | 0.623 ± 0.023 | 0.722 ± 0.015 | 0.64909 ± 0.00052 | 0.635 ± 0.0095 | 0.701 ± 0.022
35 | PALVVALLASVL | 0.485 ± 0.011 | 0.584 ± 0.018 | 0.646 ± 0.039 | 0.505 ± 0.022 | 0.60007 ± 0.00036 | 0.347 ± 0.015 | 0.386 ± 0.029 | 0.504 ± 0.0057
36 | GQFFRCWRRRLC | 0.171 ± 0.081 | 0.634 ± 0.044 | 0.709 ± 0.0072 | 0.649 ± 0.03 | 0.72 ± 0.022 | 0.145 ± 0.019 | 0.166 ± 0.028 | 0.443 ± 0.011
37 | LVLVVFCPLWFW | 0.43567 ± 0.00031 | 0.483 ± 0.035 | 0.581 ± 0.024 | 0.401 ± 0.037 | 0.5794 ± 0.0036 | 0.4422 ± 0.00092 | 0.388 ± 0.0094 | 0.56 ± 0.024
38 | LWGLVWGGVWGV | 0.439 ± 0.015 | 0.683 ± 0.039 | 0.722 ± 0.013 | 0.564 ± 0.014 | 0.729 ± 0.012 | 0.5683 ± 0.0018 | 0.573 ± 0.015 | 0.705 ± 0.0096
39 | VCVWVDILAFCS | 0.227 ± 0.05 | 0.0795 ± 0.016 | 0.245 ± 0.097 | 0.183 ± 0.026 | 0.278 ± 0.0048 | 0.147 ± 0.019 | 0.174 ± 0.019 | 0.252 ± 0.018
